Like-named read-outs stand apart in the source and are kept apart here.
Assays:
Type in all cases: biochemical
[1] = LC-MS of reaction mixtures of GI No. 460409128 with Rebaudioside A (Example 23)
Protocol: The reaction mixtures representing GI No. 460409128, particularly the sample “12400 S115N05A7 T24h 130627ABA” of EXAMPLE 20 (hereinafter S115N05A7), and the sample “12400 S129N04 T45h 130712ABA” of EXAMPLE 22 (hereinafter S129N04) were additionally assayed by LC-MS to identify the unknown glycosides. An Agilent 1200 series HPLC system, equipped with binary pump (G1312B), autosampler (G1367D), thermostatted column compartment (G1316B), DAD detector (G1315C), connected with Agilent 6110A MSD, and interfaced with “LC/MSD Chemstation” software, was used.
The compound observed on LCMS system at 3.5 min, corresponds to compound “Unknown@4.508” in sample “S115N05A7” (EXAMPLE 20), and compound “Unknown@RT4.526” in sample “S129N04” (EXAMPLE 22).
The ratio of these compounds and the LCMS chromatograms are provided below.

[2] = Rubusoside conversion products with UGTSL, UGTSL2, UGTLB by LCMS (Example 33); details: reaction time UGTSL2 2 hrs, UGTLB 5 hrs, UGTSL 45 hrs
Protocol: (§1) Conversion of stevioside with UGTSL and UGTSL2 was conducted in similar manner to Example 28, and the conversion of rubusoside with UGTSL and UGTSL2 was conducted similarly to Example 29. Conversions of rubusoside and stevioside with UGTLB was conducted similarly to Example 32.
(§2) The reaction mixtures were analyzed by LCMS to determine all reaction products.

[3] = Activity for Stevioside to Rebaudioside E conversion with UGTSL, UGTSL2, UGTLB (Examples 28, 32); details: 600 μL lysate, based on initial concentration of Stevioside; for Rebaudioside E formation: 0.5 mM Stevioside; for Stevioside conv. (reaction time): 0.5 mM substrate
Protocol: (§3) Activity tests were performed at 3 mL scale with 600 μL of lysate for the transformation of Stevioside using 0.5 mM of substrate, 2.5 mM of UDP-Glucose and 3 mM MgCl2 in 50 mM Sodium Phosphate buffer at pH 7.2. Samples were taken and analyzed by HPLC. HPLC Analysis. The HPLC assay was performed as described in EXAMPLE 20.
as §3, with “HPLC.” for “HPLC. HPLC Analysis.”, “corresponding chromatograms are depicted” for “HPLC assay was performed as described”, “FIG. 63a.” for “EXAMPLE 20.”

[4] = Activity of in-vivo produced enzymes for transformation of Rebaudioside A (Example 22)
Protocol: Activity tests were performed at 5 mL scale with 1,000 μL of thawed lysate for the transformation of Rebaudioside A using 0.5 mM of substrate, 2.5 mM of UDP-Glucose and 3 mM MgCl2 in 50 mM Sodium Phosphate buffer at pH 7.2. Samples were taken and analyzed by HPLC.
(§4) The HPLC assay was performed as described in EXAMPLE 20.

[5] = Activity for Rubusoside to Rebaudioside E conversion with UGTSL, UGTSL2, UGTLB (Examples 29, 32); details: 600 μL lysate, based on initial concentration of Rubusoside; for Rebaudioside E formation: 0.5 mM Rubusoside; for Rubusoside conv. (reaction time): 0.5 mM substrate
Protocol: as §3, with “Rubusoside” for “Stevioside”, “HPLC.” for “HPLC. HPLC Analysis.”
(§5) Activity tests were performed at 3 mL scale with 600 μL of lysate for the transformation of Rubusoside using 0.5 mM of substrate, 2.5 mM of UDP-Glucose and 3 mM MgCl2 in 50 mM Sodium Phosphate buffer at pH 7.2. Samples were taken and analyzed by HPLC. The corresponding chromatograms are depicted in FIG. 63b.

[6] = Stevioside conversion products with UGTSL, UGTSL2, UGTLB by LCMS (Example 33); details: reaction time UGTSL2 2 hrs, UGTLB 2 hrs, UGTSL 22 hrs
Protocol: as §1, §2

[7] = Catalytic test Rebaudioside A to Rebaudioside D with in-vitro expressed UDP-glucosyltransferases (Examples 20, 21), HPLC
Protocol: The prepared expression medium mix was added to the plasmid solution and the solution was allowed to incubate at 30° C. for 3 hours while mixing the mixture every 45 minutes. 5 μL of the mixture was frozen whereas the remainder was used for the catalytic test for the conversion of Rebaudioside A to Rebaudioside D.
(§6) 430 μL of a reaction mixture containing 0.5 mM Rebaudioside A, 3 mM MgCl2, 50 mM phosphate buffer (pH7.2) and 2.5 mM UDP-glucose was added to a 1.5 mL sterile microtube. 52 μl of the enzyme expression medium was added and the resulting mixture was allowed to react at 30° C. for 24 hours. 125 μL samples were taken after 2 hours, 16 hours and 24 hours and added to a 115 μL of 60% methanol and 10 μL of 2 N H2SO4. The quenched sample was centrifuged at 18,000 g for 2 minutes at RT. 200 μL was transferred to an HPLC vial and analyzed.
The HPLC assay was performed as follows:
as §6, with “μL” for “μl”, “to” for “to an”
as §4

[8] = Activity for Rebaudioside A to Rebaudioside D conversion with UGTSL2, UGTLB (Examples 30, 32); details: UGTLB, 22 h., 600 μL lysate, based on initial concentration of Rebaudioside A
Protocol: as §3, with “60” for “600”, “Rebaudioside A” for “Stevioside”, “HPLC.” for “HPLC. HPLC Analysis.”
as §5, with “Rebaudioside A” for “Rubusoside”, “chromatogram after 23 h. of reaction is” for “chromatograms are”, “63c.” for “63b.”

[9] = 0.5 mM Rebaudioside A, 30° C., HPLC

B1: gi460409128_XP_004249992.1: cyanidin-3-O-glucoside 2-O-glucuronosyltransferase-like [Solanum lycopersicum], SEQ ID NO:5; S129N04 is its Example 22 reaction sample (protein, listed as Solanum lycopersicum)
chain: MSPKLHKELFFHSLYKKTRSNHTMATLKVLMFPFLAYGHISPYLNVAKKLADRGFLIYFCSTPINLKSTIEKIPEKYADSIHLIELHLPELPQLPPHYHTTNGLPPNLNQVLQKALKMSKPNFSKILQNLKPDLVIYDILQRWAKHVANEQNIPAVKLLTSGAAVFSYFFNVLKKPGVEFPFPGIYLRKIEQVRLSEMMSKSDKEKELEDDDDDDDLLVDGNMQIMLMSTSRTIEAKYIDFCTALTNWKVVPVGPPVQDLITNDVDDMELIDWLGTKDENSTVFVSFGSEYFLSKEDMEEVAFALELSNVNFIWVARFPKGEERNLEDALPKGFLERIGERGRVLDKFAPQPRILNHPSTGGFISHCGWNSAMESIDFGVPIIAMPMHLDQPMNARLIVELGVAVEIVRDDDGKIHRGEIAETLKGVITGKTGEKLRAKVRDISKNLKTIRDEEMDAAAEELIQLCRNGN
Steviol glycoside conversion in reaction mixture, Reb A [1]: 49.00 % area
Steviol glycoside conversion in reaction mixture, Reb D [1]: 23.73 % area
Steviol glycoside conversion in reaction mixture, Reb UNK (reb D2) [1]: 21.22 % area
Steviol glycoside conversion in reaction mixture, Unknown@RT3.5 (reb M2) [1]: 6.05 % area
Steviol glycoside conversion in reaction mixture, Reb A ([1]; listed as S115N05A7): 53.24 % area
Steviol glycoside conversion in reaction mixture, Reb D ([1]; listed as S115N05A7): 20.35 % area
Steviol glycoside conversion in reaction mixture, Reb UNK (reb D2) ([1]; listed as S115N05A7): 19.93 % area
Steviol glycoside conversion in reaction mixture, Unknown@RT3.5 (reb M2) ([1]; listed as S115N05A7): 6.47 % area
LC-MS, peak area ratio (%): REb E [2]: 35.88%
LC-MS, peak area ratio (%): Reb D [2]: 3.45%
LC-MS, peak area ratio (%): Rub [2]: 7.82%
LC-MS, peak area ratio (%): Stev [2]: 2.37%
LC-MS, peak area ratio (%): Unknown peak #1 (MW804) RT 30.70 min [2]: 20.38%
LC-MS, peak area ratio (%): Unknown peak #2 (MW804) RT 49.50 min [2]: 27.75%
LC-MS, peak area ratio (%): Unknown peak #3 (MW804) RT 50.40 min [2]: 2.35%
Rebaudioside E formation ([3]; reaction time UGTSL 22 h., UGTSL2 2 h.): 46%
Stevioside conv. (reaction time) ([3]; reaction time UGTSL 22 h., UGTSL2 2 h., 2.5 mM UDP-Glucose, pH 7.2): 74% (22 h.)
Conversion after 45 hrs. ([4]; 0.5 mM, in-vivo produced enzyme lysate): 62.1%
Reb D selectivity ([4]; after 45 hrs.): 43.6%
Rebaudioside E formation ([5]; reaction time UGTSL 45 h., UGTSL2 2 h.): 27%
Rubusoside conv. (reaction time) ([5]; reaction time UGTSL 45 h., UGTSL2 2 h., 2.5 mM UDP-Glucose, pH 7.2): 70% (45 h.)
LC-MS, peak area ratio (%): Reb D [6]: 0.54%
LC-MS, peak area ratio (%): Reb E [6]: 49.68%
LC-MS, peak area ratio (%): Stev [6]: 25.24%
LC-MS, peak area ratio (%): Unknown peak #1 (MW966) RT = 22.60 min [6]: 3.97%
LC-MS, peak area ratio (%): Unknown peak #2 (MW966) RT = 26.50 min [6]: 20.56%
Steviol glycoside conversion in reaction mixture, Reb A [7, 9]: 46.7 % area
Steviol glycoside conversion in reaction mixture, Reb UNK (later identified as reb D2) [7, 9]: 23.3 % area
Conversion RebA to RebD ([7]; in-vitro expressed enzyme): Active

B2: UGTLB: UDP-glucosyltransferase, Lycium barbarum, SEQ ID NO:10 (protein, listed as Escherichia coli)
chain: MGTEVTVHKNTLRVLMFPWLAYGHISPFLNVAKKLVDRGFLIYLCSTAINLKSTIKKIPEKYSDSIQLIELHLPELPELPPHYHTTNGLPPHLNHTLQKALKMSKPNFSKILQNLKPDLVIYDLLQQWAEGVANEQNIPAVKLLTSGAAVLSYFFNLVKKPGVEFPFPAIYLRKNELEKMSELLAQSAKDKEPDGVDPFADGNMQVMLMSTSRIIEAKYIDYFSGLSNWKVVPVGPPVQDPIADDADEMELIDWLGKKDENSTVFVSFGSEYFLSKEDREEIAFGLELSNVNFIWVARFPKGEEQNLEDALPKGFLERIGDRGRVLDKFAPQPRILNHPSTGGFISHCGWNSVMESVDFGVPIIAMPIHLDQPMNARLIVELGVAVEIVRDDYGKIHREEIAEILKDVIAGKSGENLKAKMRDISKNLKSIRDEEMDTAAEELIQLCKNSPKLK
LC-MS, peak area ratio (%): REb E [2]: 9.21%
LC-MS, peak area ratio (%): Reb D [2]: 1.29%
LC-MS, peak area ratio (%): Rub [2]: 13.49%
LC-MS, peak area ratio (%): Unknown peak #1 (MW804) RT 30.70 min [2]: 4.07%
LC-MS, peak area ratio (%): Unknown peak #2 (MW804) RT 49.50 min [2]: 66.67%
LC-MS, peak area ratio (%): Unknown peak #3 (MW804) RT 50.40 min [2]: 5.27%
Rebaudioside E formation ([3]; UGTLB, 22 h.): 3%
Stevioside conv. (reaction time) ([3]; UGTLB, 22 h.): 89% (22 h.)
Rebaudioside E formation ([5]; UGTLB, 5 h.): 4%
Rubusoside conv. (reaction time) ([5]; UGTLB, 5 h.): 65% (5 h.)
LC-MS, peak area ratio (%): Reb E [6]: 3.12%
LC-MS, peak area ratio (%): Stev [6]: 43.11%
LC-MS, peak area ratio (%): Unknown peak #2 (MW966) RT = 26.50 min [6]: 53.78%
Rebaudioside D formation ([8]; 0.5 mM Rebaudioside A): 10%
Rebaudioside A conv. (reaction time) ([8]; 0.5 mM substrate): 72% (22 h.)

Source: patent publication US11653679B2, “High-purity steviol glycosides” (PureCircle Sdn Bhd, priority 2014, dated 2023)
